# According to patent publication US20030129186A1 (published 2003):
# B1: recombinant human melanotransferrin (p97) (ligand, UniProt P08582 20-709, looked up)
# chain: GMEVRWCATSDPEQHKCGNMSEAFREAGIQPSLLCVRGTSADHCVQLIAAQEADAITLDGGAIYEAGKEHGLKPVVGEVYDQEVGTSYYAVAVVRRSSHVTIDTLKGVKSCHTGINRTVGWNVPVGYLVESGRLSVMGCDVLKAVSDYFGGSCVPGAGETSYSESLCRLCRGDSSGEGVCDKSPLERYYDYSGAFRCLAEGAGDVAFVKHSTVLENTDGKTLPSWGQALLSQDFELLCRDGSRADVTEWRQCHLARVPAHAVVVRADTDGGLIFRLLNEGQRLFSHEGSSFQMFSSEAYGQKDLLFKDSTSELVPIATQTYEAWLGHEYLHAMKGLLCDPNRLPPYLRWCVLSTPEIQKCGDMAVAFRRQRLKPEIQCVSAKSPQHCMERIQAEQVDAVTLSGEDIYTAGKTYGLVPAAGEHYAPEDSSNSYYVVAVVRRDSSHAFTLDELRGKRSCHAGFGSPAGWDVPVGALIQRGFIRPKDCDVLTAVSEFFNASCVPVNNPKNYPSSLCALCVGDEQGRNKCVGNSQERYYGYRGAFRCLVENAGDVAFVRHTTVFDNTNGHNSEPWAAELRSEDYELLCPNGARAEVSQFAACNLAQIPPHAVMVRPDTNIFTVYGLLDKAQDLFGDDHNKNGFKMFDSSNYHGQDLLFKDATVRAVPVGEKTTYRGWLGLDYVAALEGMSSQQC
# notes: also called MTf
# Assays:
# [1] = biological target: T1, p97 receptor (melanotransferrin receptor, MTf-R) on bovine brain capillary endothelial cells (BBCECs) (bovine); assay: cell-based or functional assay
# [2] = biological target: p97 receptor on isolated human brain capillaries (human); assay: cell-based or functional assay
# [3] = biological target: T1, p97 receptor (melanotransferrin …); assay: Scatchard analysis of [125I]-p97 binding to saponin-permeabilized BBCEC monolayers at 4 C, displaced by unlabelled p97
# [4] = biological target: T1, p97 receptor (melanotransferrin …); assay: [125I]-p97 (25 nM) binding to BBCECs, 2 h at 4 C, with or without saponin
# [5] = biological target: T1, p97 receptor (melanotransferrin …); assay: Scatchard plot of specific [125I]-p97 binding to saponin-treated BBCECs (FIG. 12c)
binder,measurement,setting,value
B1,decrease in apical-to-basal transport of [125I]-p97 (25 nM) across BBCEC monolayers with a 200-fold molar excess of unlabelled p97,[1],69%
same,"decrease in uptake of [125I]-p97 (100 nM) into isolated human brain capillaries, 1 h at 37 C, with a 50-fold molar excess of unlabelled p97",[2],60%
same,Kd,[3],1400 nM
same,fold increase of [125I]-p97 associated with cells after saponin permeabilization (against untreated cells),[4],4 fold
same,Kd,[5],~1000 nM
